This assay has as its target Centrolobium microchaete seed lectin (Centrolobium microchaete). Kind of assay: crystal structure; CML co-crystallised with 5 mM MDM; 200 mM ammonium sulfate, 100 mM HEPES pH 7.5, 25% PEG 3350; space group C121, one dimer per asymmetric unit; dimer also checked by PISA.

Broadly, the stoichiometry N is a count of units in the complex or per binding partner. “Centrolobium microchaete seed lectin (natural protein)”: the stoichiometry N was 2.

For the origin of these results see PMC11822720.
